Key:
human T cells = type: cell-based; conditions: 20 μg/ml, 6 days post-incubation
B. fragilis [1] = experiment: Rat model of intraabdominal sepsis, abscess formation after B. fragilis challenge; type: in vivo; conditions: 50 μg dose
[2] = 0.01% solution of about 1500 kDa HA; model normally produces more than 70% adhesions; cited from earlier work
B. fragilis [3] = experiment: IL-10-mediated protection against abscess formation; type: in vivo, rat
Method: In order to examine further the role of IL-10 in the abscess model, male Wistar rats (150 g) were treated with recombinant IL-10, anti-IL-10, or isotype antibody control beginning on the day of challenge with 1×10^8 cfu B. fragilils. Further comparison was made using a group treated with Streptococcus pneumoniae type I CP alone or together with anti-IL-10. Animals were sacrificed and examined six days after challenge.

B. fragilis [4] = experiment: Protection against abscess formation by recombinant cytokine given intracardially at challenge; type: in vivo, rat; conditions: 100 pg intracardiac at time of challenge, 10^8 cfu B. fragilis; Experiment A
[5] = 0.2 μg i.p. at 0, 24, 48 and 72 hours relative to challenge

poly-L-lysine
T cell activation (in words) (human T cells): did not stimulate T cell proliferation | Protection against abscess formation vs saline (in words) (B. fragilis [1]): did not protect against abscess formation

hyaluronic acid [HA]
prevention of severe intra-abdominal adhesions (in words) [2]: effectively prevents all severe intra-abdominal adhesions

B1: recombinant IL-10: recombinant interleukin-10 (protein, UniProt P22301 19-178, looked up)
Interleukin-10: SPGQGTQSENSCTHFPGNLPNMLRDLRDAFSRVKTFFQMKDQLDNLLLKESLLEDFKGYLGCQALSEMIQFYLEEVMPQAENQDPDIKAHVNSLGENLKTLRLRLRRCHRFLPCENKSKAVEQVKNAFNKLQEKGIYKAMSEFDIFINYIEAYMTMKIRN
Protection against abscess formation vs isotype control antibody (in words) (B. fragilis [3]; 0.2 μg i.p.): protected from abscess formation | Abscess formation (%) (B. fragilis [3]; [5]): 13% | No. animals with abscess/total (B. fragilis [3]; [5]): 2/16

B2: IL-4: interleukin 4 given at 100 pg as comparison (protein, UniProt P05112 25-153, looked up)
Interleukin-4: HKCDITLQEIIKTLNSLTEQKTLCTELTVTDIFAASKNTTEKETFCRAATVLRQFYSHHEKDTRCLGATAQQFHRHKQLIRFLKRLDRNLWGLAGLNSCPVKEANQSTLENFLERLKTIMREKYSKCSS
Abscess formation (%) (B. fragilis [4]): 75%
